# Test results from US20260234247A1 (published 2026).
# Experiments:
# [1] = molecular target: T1, human LILRB1 expressed on CHOK1 cells (CHOK1-hLILRB1) (human, UniProt Q8NHL6 24-650); assay: FACS binding to CHOK1-hLILRB1 cells
# T1 construct: whole, on cells; also called CHOK1-LILRB1
# [2] = molecular target: T2, human LILRB2 expressed on CHOK1 cells (CHOK1-hLILRB2) (human, UniProt Q8N423 22-597); assay: FACS binding to CHOK1-hLILRB2 cells
# T2 construct: whole, on cells; also called CHOK1-LILRB2
# [3] = molecular target: T1, human LILRB1 expressed on CHOK1 cells …; assay: cell based RBA, flow cytometry: blocking of HLA-G binding to CHOK1-hLILRB1 cells
# [4] = molecular target: cynomolgus LILRB2 (cynomolgus); assay: Octet off-rate ranking;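 note: antibody dissociation rate constants against cynomolgus LILRB2 plus human LILRB1, LILRB2, LILRA1 and LILRA2, measured on an Octet instrument to rank binding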
# Description: Binding affinity of anti-LILRB1 and anti-LILRB2 antibodies against human LILRB1, LILRB2, LILRA1, LILRA2 and cynomolgus LILRB2 was ranked by measuring dissociation rate constant (Kdis) using the Octet system.
# [5] = molecular target: T3, human LILRB1-his (human, UniProt Q8NHL6 24-458, limits assumed); assay: SPR (Biacore 8K), antibody captured via Fc, LILRB1-his as analyte, 1:1 model
# T3 construct: Analyte of the Biacore run; not shown: His tag
# [6] = molecular target: T4, human LILRB2-his (human, UniProt Q8N423 22-460, limits assumed); assay: SPR (Biacore 8K), antibody captured via Fc, LILRB2-his as analyte, 1:1 model
# T4 construct: Analyte of the Biacore run; not shown: His tag
# [7] = molecular target: T2, human LILRB2 expressed on CHOK1 cells …; assay: cell based RBA, flow cytometry: blocking of HLA-G binding to CHOK1-hLILRB2 cells
# T1 sequence (Q8NHL6 24-650): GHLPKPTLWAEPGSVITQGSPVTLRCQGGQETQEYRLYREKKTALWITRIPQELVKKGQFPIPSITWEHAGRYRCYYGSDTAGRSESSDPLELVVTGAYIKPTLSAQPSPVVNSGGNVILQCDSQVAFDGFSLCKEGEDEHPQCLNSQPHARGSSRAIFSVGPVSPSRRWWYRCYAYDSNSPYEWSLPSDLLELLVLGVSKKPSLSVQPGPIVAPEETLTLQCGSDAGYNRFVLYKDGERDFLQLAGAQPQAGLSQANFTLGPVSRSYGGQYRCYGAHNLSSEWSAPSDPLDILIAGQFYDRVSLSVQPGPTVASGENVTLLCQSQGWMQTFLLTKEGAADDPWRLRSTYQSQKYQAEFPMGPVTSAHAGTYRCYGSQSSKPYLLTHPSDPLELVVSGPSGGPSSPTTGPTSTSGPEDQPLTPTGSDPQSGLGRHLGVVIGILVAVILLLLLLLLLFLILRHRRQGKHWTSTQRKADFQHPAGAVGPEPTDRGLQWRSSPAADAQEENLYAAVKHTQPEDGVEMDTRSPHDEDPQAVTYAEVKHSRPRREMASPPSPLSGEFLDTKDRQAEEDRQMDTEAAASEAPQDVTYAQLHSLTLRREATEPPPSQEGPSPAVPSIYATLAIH
# Sequence of cynomolgus LILRB2 (cynomolgus) (chain, as listed by the source): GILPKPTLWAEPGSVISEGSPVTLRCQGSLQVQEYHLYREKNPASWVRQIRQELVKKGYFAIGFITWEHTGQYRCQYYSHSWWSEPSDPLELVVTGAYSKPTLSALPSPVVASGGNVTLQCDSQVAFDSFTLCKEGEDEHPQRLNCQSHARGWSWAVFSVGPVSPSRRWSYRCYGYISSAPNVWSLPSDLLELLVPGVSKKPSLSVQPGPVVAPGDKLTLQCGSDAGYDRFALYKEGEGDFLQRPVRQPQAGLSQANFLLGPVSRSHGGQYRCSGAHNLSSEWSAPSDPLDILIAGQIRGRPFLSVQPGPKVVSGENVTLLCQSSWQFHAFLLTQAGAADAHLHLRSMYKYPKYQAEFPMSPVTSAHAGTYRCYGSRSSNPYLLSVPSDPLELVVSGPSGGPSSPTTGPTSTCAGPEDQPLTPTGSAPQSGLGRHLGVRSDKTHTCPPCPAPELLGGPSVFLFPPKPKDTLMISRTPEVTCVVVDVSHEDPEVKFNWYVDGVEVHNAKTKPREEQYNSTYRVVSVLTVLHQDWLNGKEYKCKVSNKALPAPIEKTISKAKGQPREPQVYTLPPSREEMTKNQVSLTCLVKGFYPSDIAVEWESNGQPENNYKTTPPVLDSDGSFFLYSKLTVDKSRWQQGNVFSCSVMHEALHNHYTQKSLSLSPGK
# T4 sequence (Q8N423 22-460 limits assumed): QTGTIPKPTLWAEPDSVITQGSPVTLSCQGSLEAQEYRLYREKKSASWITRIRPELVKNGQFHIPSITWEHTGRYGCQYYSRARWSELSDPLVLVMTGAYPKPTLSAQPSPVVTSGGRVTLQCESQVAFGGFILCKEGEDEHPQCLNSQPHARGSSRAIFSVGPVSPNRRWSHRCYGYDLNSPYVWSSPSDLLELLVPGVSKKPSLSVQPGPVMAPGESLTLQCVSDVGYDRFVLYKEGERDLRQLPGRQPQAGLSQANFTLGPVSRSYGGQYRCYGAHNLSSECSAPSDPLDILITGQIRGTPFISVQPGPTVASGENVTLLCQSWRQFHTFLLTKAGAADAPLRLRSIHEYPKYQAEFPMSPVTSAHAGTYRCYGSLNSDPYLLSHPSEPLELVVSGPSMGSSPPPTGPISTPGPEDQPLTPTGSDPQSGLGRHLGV
# T2 sequence (Q8N423 22-597): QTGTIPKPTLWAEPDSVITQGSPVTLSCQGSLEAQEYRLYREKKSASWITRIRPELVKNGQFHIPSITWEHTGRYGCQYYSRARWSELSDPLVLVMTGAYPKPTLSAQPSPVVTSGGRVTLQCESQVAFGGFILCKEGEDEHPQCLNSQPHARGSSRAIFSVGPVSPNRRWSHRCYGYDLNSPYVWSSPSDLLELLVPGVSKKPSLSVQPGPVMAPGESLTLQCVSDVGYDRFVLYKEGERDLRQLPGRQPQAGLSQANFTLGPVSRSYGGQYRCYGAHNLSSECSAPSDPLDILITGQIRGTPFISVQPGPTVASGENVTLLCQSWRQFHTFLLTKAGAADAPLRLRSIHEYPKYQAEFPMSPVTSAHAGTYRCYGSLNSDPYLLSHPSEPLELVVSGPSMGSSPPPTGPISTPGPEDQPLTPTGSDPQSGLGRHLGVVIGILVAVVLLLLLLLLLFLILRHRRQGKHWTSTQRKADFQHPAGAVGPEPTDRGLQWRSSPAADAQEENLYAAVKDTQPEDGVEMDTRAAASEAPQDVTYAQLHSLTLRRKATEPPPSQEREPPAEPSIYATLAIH
# T3 sequence (Q8NHL6 24-458 limits assumed): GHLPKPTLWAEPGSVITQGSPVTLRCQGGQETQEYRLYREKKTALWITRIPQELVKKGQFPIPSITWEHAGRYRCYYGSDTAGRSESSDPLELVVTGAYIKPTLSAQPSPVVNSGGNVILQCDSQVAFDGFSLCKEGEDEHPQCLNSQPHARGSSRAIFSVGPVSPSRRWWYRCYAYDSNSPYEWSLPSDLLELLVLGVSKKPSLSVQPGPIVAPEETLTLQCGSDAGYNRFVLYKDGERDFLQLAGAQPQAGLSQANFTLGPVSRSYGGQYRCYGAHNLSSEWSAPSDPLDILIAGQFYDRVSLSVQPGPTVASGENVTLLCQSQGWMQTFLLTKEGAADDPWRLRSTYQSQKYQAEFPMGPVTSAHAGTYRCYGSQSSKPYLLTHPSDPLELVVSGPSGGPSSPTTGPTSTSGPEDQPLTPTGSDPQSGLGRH
EC50 [1] [nM],EC50 [3] [nM],Top Inhibition [3] [%],EC50 [2] [nM],Binder,other results
0.62,0.94,79.6,,"3C1 (antibody, human IgG4, kappa, V domains shown) VH: EVQLVESGGGLVQPGGSLRLSCAASGFTFSDYDMHWVRQATGKGLEWVATIDTAGDTYYPDSVRGRFTISRENAKNSLSLQMNSLRAGDTAVYFCARDVPGTGFDHWGQGTLVTVSS VL: SSELTQDPAVSVALGQTVRITCQGDSLRSYYESWYQQKPGQAPVLVIYGKNNRPSGIPDRFSGSISGNTASLTITGTQAEDEADYYCNSRDNSGDHWVFGGGTRLTVLG",binding result [2]: no binding
,,,,"LK-RB2-27 (antibody, human IgG4 S228P, kappa, V domains shown) VH: DVKLVESGGGLVKPGGSLKLSCAASGFTFSSYSMSWVRQTPEKRLEWVATISTGGSYTYYPDSVKGRFTISRDNAKNTLYLQMSSLKSEDTAMFYCTRGSMDYWGQGTSVTVSS VL: DILMTQSPSSMSVSLGDTVSITCHASQDISSNIGWLQQKPGNSFKGLIYHGTNLEDGVPSRFSGSGSGADYSLTISSLESEDFADYYCVQYAQFPYTFGGGTKLEIKR",koff [4]: 0.00109 s⁻¹
,,,,"LK-RB2-28 (antibody, human IgG4 S228P, kappa, V domains shown) VH: DVKLVESGGGLVKPGGSLKLSCAASGFTFSSYSMSWVRQTPEKRLEWVATISTGGSYTYYPDSMKGRFTISRDNAKNTLYLQMSSLKSEDTAMFYCTRGSMDYWGQGTSVTVSS VL: DILMTQSPSSMSVSLGDTVSIACHASQDISSNIGWLQQKPGNSFKGLIYHGTNLEDGVPSRFSGSGSGADYSLTISSLESEDFADYYCVQYAQFPYTFGGGTKLEIKR",koff [4]: 0.00114 s⁻¹
,,,,"LK-RB2-26 (antibody, human IgG4 S228P, kappa, V domains shown) VH: QVQLKESGPGLVAPSQSLSITCTVSGFSLTSYGVHWVRQPPGKGLEWLGVIWAGGSTDYNAAFISRLNISKDISESQVFFRMNSLQTDDTAMYYCARDQMVRSAMDYWGQGTSVTVSS VL: DIQMIQSPSSMFASLGDRVSLSCRASQGIRGNLDWYQQKPGGTIKLLIYSTSNLNSAVPSRFSGSGSGSDYSLTISNLESEDFADYYCLQRNASPYTFGGGTKLEIKR",koff [4]: 0.00184 s⁻¹
4.55,1.32,32.7,7.23,"LK-RB2-8 (antibody, human IgG4 S228P, kappa, V domains shown) VH: QIQLVQSGPELKKPGETVKISCKASGYSFASYGMGWVKQAPGKGLKWLGWINTHSGVPTYADDFKGRFAFSLETSASTAYLQINNLKNEDTATYFCAHYGRPWFPYWGQGTLVTVSA VL: DIQMTQSPASLSASVGETVTITCRTSENIYSYLAWYQQKQGKSPQLLVYNAKSLAEGVPSRFSGSGSGTQFSLRINSLQPEDFGTYYCQQHYETPLTFGAGTKLELKR",
4.3,13.4,35.3,6.01,"LK-RB2-16 (antibody, human IgG4 S228P, kappa, V domains shown) VH: QIQLVQSGPELKKPGETVKISCKASGYTFTTYGMGWVKQAPEKGLKWMGWINTNSGAPTYGDDFKGRFAFSLETSASTAYLQINNLKNEDTATYFCAHYGRPWFAYWGQGTLVTVSA VL: DIQMTQSPASLSASVGETVTITCRASENIYSYLAWYHQKQGESPQLLVYNAKTLAEGVPSRFSGSGSGTQFSLKINSLQPEDFGSYYCQHHYNIPLTFGAGTKLELKR",
0.65,1.61,87.3,,"LK-RB1-59 (antibody, human IgG4 S228P, kappa, V domains shown) VH: QIQLVQSGPELKKPGETVKISCKASGYTFTTYGMSWVKQAPGKGLKWMGWINTYSGVPTYADDFKGRFAFSLETSASTAYLQINNLKNEDTATYFCARRRIYYGNKGYAMDYWGQGTSVTVSS VL: DIQMTQSPASLSVSVGETVTITCRASENIYSNLVWYQQKQGKSPQLLVYTATNLADGVPSRFSGSGSGTQFSLKINSLQSEDFGSYYCQHFWGTPWTFGGGTKLEIKR",binding result [2]: no binding
,1.26,89.1,,"12D12 (antibody, human IgG4 S228P, kappa, V domains shown) VH: QVQLQQPGAELVKPGASVRMSCKASGYTFTSYWVHWVKQRPGQGLEWIGVIDPSDSYTSYNQNFKGKATLTVDTSSKTAYIHLSSLTSEDSAVYFCARGERYDGDYFAMDYWGQGTSVTVSS VL: DIVMTQSPASLSVSVGETVTITCRASENIYSNLAWYQQKQGKSPQLLVYAATNLADGVPSRFSGSRSGTQYSLKINSLQSEDFGTYYCQHFWNTPRTFGGGTKLEIKR",binding result [2]: no binding
,,,,"LK-RB2-30 (antibody, human IgG4 S228P, kappa, V domains shown) VH: EVQLVESGGGLVQPGGSLKLSCAASGFTFNTDGMSWVRQTPDKRLELVAIINSNGGSTYYPDSVKGRFTISRDNAKNTLYLQMSSLKSEDTAMYYCAREGSYGSWFAYWGQGTLVTVSA VL: DIQMTQSPASLSVSVGETVTITCRASENINNNLAWYHQKQGKSPQLLVYAATNLADGVPSRFSGSGSGTQYSLKINSLQSEDFGSYYCQHFWGTPFTFGGGTKLEIKR",koff [4]: 2.01e-05 s⁻¹
,,,,"LK-RB2-24.h1 (antibody, human IgG4, kappa, V domains shown, Humanized form of LK-RB2-24) VH: QVQLVQSGSELKKPGASVKVSCKASGYTFTTYGMSWVKQAPGQGLKWMGWLNIYSGVPAYADDFKGRFVFSLDTSASTAYLQISSLKAEDTAVYFCARRENYDGYGMDYWGQGTLVTVSS VL: EIVLTQSPATLSLSPGERATLSCRASQSISDYLHWYQQKPGQAPRLLIKYASQSISGIPARFSGSGSGTDFTLTISSLEPEDFAVYYCQNGHSFPYTFGGGTKLEIKR",Kd [5]: 25.1 nM; koff [5]: 0.00446 s⁻¹; kon [5]: 177000 M⁻¹ s⁻¹; Kd [6]: 0.836 nM; koff [6]: 0.000758 s⁻¹; kon [6]: 907000 M⁻¹ s⁻¹
,,,,"LK-RB2-24.h3 (antibody, human IgG4, kappa, V domains shown, Humanized form of LK-RB2-24) VH: QVQLVQSGSELKKPGASVKVSCKASGYTFTTYGMSWVKQAPGQGLKWMGWLNIYSGVPAYADDFKGRFVFSLDTSASTAYLQISSLKAEDTAVYFCARRENYDGYGMDYWGQGTLVTVSS VL: EIVLTQSPATLSLSPGERATLSCRASQSISDYLHWYQQKPGQAPRLLIKYASQSISGIPSRFSGSGSGTDFTLTISSLEPEDVAVYYCQNGHSFPYTFGGGTKLEIKR",Kd [5]: 20.1 nM; koff [5]: 0.00335 s⁻¹; kon [5]: 167000 M⁻¹ s⁻¹; Kd [6]: 0.852 nM; koff [6]: 0.000638 s⁻¹; kon [6]: 749000 M⁻¹ s⁻¹
2.34,2.16,70.3,0.16,"LK-RB2-12 (antibody, human IgG4 S228P, kappa, V domains shown) VH: QIQLVQSGPELKKPGETVKISCKASGYTFTTYGMSWVKQTPGKGLKWMGWINIYSGVPTYADDFKGRFVFSLEISASTAHLQINNLKNEDTATYFCARRKDYSGHCFDYWGQGTTLTVSS VL: DIVLTQSPASLAVSPGQRATISCRASESVDTYGISFMHWYQQKPGQPPKLLIYRASNLESGIPARFSGSGSRTDFTLTINPVETDDVAIYYCQQSKKDPYTFGGGTKLEIKR",
31.4,4.18,70.8,0.16,"LK-RB2-15 (antibody, human IgG4 S228P, kappa, V domains shown) VH: QIQLVQSGPELKKPGETVKISCKASGYTFTTYGMSWVKQAPGKGLKWMGWINVYSGVPTYADDFKGRFAFSLEISASTAYLQINNLKDEDTATYFCARRKDYSGHCFDYWGQGTTLTVSS VL: DIVLTQSPASLAVSLGQRATFSCRASESVDTYGISFMHWYQQKPGQPPKLLIYRASNLESGIPARFSGSGSRTDFTLTINPVETDDVATYYCQQSKKEPYTFGGGTKLEIKR",EC50 [7]: 0.162 nM; Top Inhibition [7]: 77.5%
1.34,2.86,70.8,0.27,"LK-RB2-5 (antibody, human IgG4 S228P, kappa, V domains shown) VH: QIQLVQSGPELKKPGETVKISCKASGYTFTTYGMSWVKQAPGKGLKWMGWINTYSGVPTYADDFKGRFAFSLETSVSTAYLQINNLKNEDTATYFCARRDGYDGGGNFDYWGQGTTLTVSS VL: DIVMTQSPATLSVTPGDRVSLSCRASQSISDYLHWYQQKSHESPRLLIKYASQSISGIPSRFSGSGSGSDFTLSINSVEPEDVGVYYCQNGHGFPWTFGGGTKLEIKR",
0.848,1.7,93.4,0.18,"LK-RB2-24 (antibody, human IgG4 S228P, kappa, V domains shown) VH: QIQLVQSGPEVKKPGETVKISCKASGYTFTTYGMSWVKQAPGKGLKWMGWLNIYSGVPAYADDFKGRFAFSLESSASTAYLQINNLKNEDTATYFCARRENYDGYGMDYWGQGTSVTVSS VL: DIVMTQSPATLSVTPGDRVSLSCRASQSISDYLHWYQQKSHESPRLLIKYASQSISGIPSRFSGSGSGSDFTLSINSVEPEDVGVYYCQNGHSFPYTFGGGTKLEIKR",EC50 [7]: 0.0956 nM; Top Inhibition [7]: 74.1%
,,,,"LK-RB2-29 (antibody, human IgG4 S228P, kappa, V domains shown) VH: QVQLQQSGAELARPGASVKLSCKASGYTFTSYWMQWVKQRPGQGLEWIGAIYPGDGDTRYTQKFKGKATLTADKSSSTAYMQLSSLASEDSAVYYCARGYYGSSYADYFDYWGQGTTLTVSS VL: DIQMTQSPASLSASVGETVTITCRASGNIHNYLAWYQQKQGKSPQLLVYNAKTLADGVPSRFSGSGSGTQYSLKINSLQPEDFGSYYCQHFWSTPPTFGGGTKLEIKR",koff [4]: 0.000215 s⁻¹
0.57,0.69,82.5,,"15G8 (antibody, human IgG4 S228P, kappa, V domains shown) VH: DVQLQGSGPGLVKPSETLSLTCSVTGYSITSGYYWNWIRQFPGKKLEWMGYISYDGSNNYNPSLKNRITISRDTSKNQFSLKLNSVTAADTATYYCAHGYSYYYAMDAWGQGTSVTVSS VL: DIQMTQSPSSLSASVGDRVTITCRTSQDISNYLNWYQQKPGKAVKLLISYTSRLHSGVPSRFSGSGSGTDYTLTISSLQPEDFATYYCQQGNTLPTFGQGTKLEIKR",binding result [2]: no binding
